Changes are numbered by the printed parent chain. Names and notes keep the numbering of the source. Bridges are numbered along the chain shown (N, C = ends). Where no end group is shown, it is not given here.
Experiments:
Settings in all cases: both partners purified
[1] = biological target: T1, human LRP6 E1E2 (P21-P630) with a C-terminal 10x His tag (human, UniProt O75581 21-630, labeled with the dye NT-647 in the MST experiments (legends: Cy-5 dye-labeled)); assay: MST; labeled LRP6 E1E2 or LRP6 E1 (~5 nM) titrated with unlabeled Smo-SOST, MBP-SOST, tags or peptides; 20 mM Tris-Cl pH 7.0, 200 mM NaCl, 0.5 mg/ml BSA, 0.05% Tween 20; 22 °C; three independent experiments
T1 construct: low-density lipoprotein receptor-related protein 6 (LRP6), human, ectodomains E1 and E2, residues P21-P630; also called LPR6 E1E2; source: High Five insect cells, secreted, purified (Ni-NTA, HiTrapQ, SEC); for the crystal co-expressed with SOSTtr177
T1 sequence (looked up): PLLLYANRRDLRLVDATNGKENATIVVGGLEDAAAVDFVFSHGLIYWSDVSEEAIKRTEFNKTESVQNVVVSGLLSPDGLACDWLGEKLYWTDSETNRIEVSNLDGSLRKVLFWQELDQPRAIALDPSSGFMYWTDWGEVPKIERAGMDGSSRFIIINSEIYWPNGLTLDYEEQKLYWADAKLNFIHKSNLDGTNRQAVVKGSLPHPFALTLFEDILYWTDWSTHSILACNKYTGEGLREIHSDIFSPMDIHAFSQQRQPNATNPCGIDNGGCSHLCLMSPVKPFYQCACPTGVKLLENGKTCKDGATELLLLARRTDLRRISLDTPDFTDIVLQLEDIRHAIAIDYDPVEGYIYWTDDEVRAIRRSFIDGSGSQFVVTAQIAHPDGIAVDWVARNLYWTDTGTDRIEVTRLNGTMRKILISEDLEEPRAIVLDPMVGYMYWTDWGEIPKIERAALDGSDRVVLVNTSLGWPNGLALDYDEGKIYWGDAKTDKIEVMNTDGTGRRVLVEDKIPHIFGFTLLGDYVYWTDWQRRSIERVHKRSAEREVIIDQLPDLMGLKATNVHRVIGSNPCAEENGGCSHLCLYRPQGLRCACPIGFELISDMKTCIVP

[2] = biological target: T2, human LRP6 E1E2 (P21–P630) with a C-terminal 10× His tag (human, UniProt O75581 21-630); assay: SEC-MALS; purified complex at 1 mg/ml on Superdex 200 increase 5/150 GL; 50 mM Tris pH 8.5, 150 mM NaCl; protein conjugate method
T2 construct: Low-density lipoprotein receptor-related protein 6 (LRP6), human, ectodomains E1 and E2, residues P21-P630; Unlabelled form: crystal, SEC-MALS and fluorescence-SEC; An anti-His-tag antibody was used for the western blots of the fluorescence-SEC experiment; also called LRP6 ectodomains 1 and 2; source: High Five insect cells (baculovirus), secreted, purified (Ni-NTA, HiTrapQ, SEC); co-expressed …
T2 sequence (looked up): T1 sequence (looked up)

LRP6 E1E2 H404K = biological target: T3, LRP6 E1E2 H404K (human, UniProt O75581 21-630, H404K); assay: cross-linking; purified LRP6 E1E2 H404K–SOST_(tr177) N175K complex with BS3 at room temperature for 30 min; ~90 kDa band cut out, chymotrypsin, LC-MS/MS
T3 construct: Low-density lipoprotein receptor-related protein 6 (LRP6), human, ectodomains E1 and E2 (parent construct P21-P630) with H404K; Mutation introduced into the LRP6 E1E2 of the crystallised complex; also called LRP6 E1E2 with the H404K mutation; source: purified as a complex with SOST_(tr177) N175K
T3 sequence (looked up): T1 sequence (looked up) with H384K

[3] = biological target: T4, human LRP6 E1E2 with a C-terminal 10× His tag, labeled with the dye NT-647 (human, UniProt O75581 21-630, dye NT-647 (Monolith NT Protein Labeling kit)); assay: MST; LRP6 E1E2 or E1 labeled with NT-647 at ~5 nM, unlabeled SOST proteins or peptides titrated; 20 mM Tris-Cl pH 7.0, 200 mM NaCl, 0.5 mg/ml BSA, 0.05% Tween 20; 22 °C; Monolith NT.115 Pico
T4 construct: Low-density lipoprotein receptor-related protein 6 (LRP6), human, ectodomains E1 and E2; the limits P21-P630 are printed for the co-expression construct; the MST construct was cloned into another vector (pAcGP67A); also called Labeled LRP6 E1E2; source: High Five insect cells (pAcGP67A), purified (Ni-NTA, HiTrapQ, SEC), no tag cleavage; not shown: His10, C-terminal, kept
T4 sequence (looked up): T1 sequence (looked up)

[4] = biological target: T5, human LRP6 E1 with a C-terminal 10× His tag, labeled with the dye NT-647 (human, dye NT-647 (Monolith NT Protein Labeling kit)); assay: as above
T5 chain: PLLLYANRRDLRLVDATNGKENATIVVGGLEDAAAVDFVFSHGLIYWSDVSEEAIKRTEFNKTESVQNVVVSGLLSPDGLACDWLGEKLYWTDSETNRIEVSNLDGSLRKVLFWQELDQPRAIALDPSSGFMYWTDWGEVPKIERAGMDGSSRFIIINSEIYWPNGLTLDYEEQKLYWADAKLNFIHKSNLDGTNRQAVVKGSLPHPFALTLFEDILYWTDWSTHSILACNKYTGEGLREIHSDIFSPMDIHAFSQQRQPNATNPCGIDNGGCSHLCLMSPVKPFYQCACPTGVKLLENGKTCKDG

[5] = biological target: T6, human LRP6 E1 (P21-D325) with a C-terminal His tag (human, UniProt O75581 21-325, labeled with the dye NT-647 in the MST experiments (legends: Cy-5 dye-labeled)); assay: MST; labeled LRP6 E1E2 or LRP6 E1 (~5 nM) titrated with unlabeled Smo-SOST, MBP-SOST, tags or peptides; 20 mM Tris-Cl pH 7.0, 200 mM NaCl, 0.5 mg/ml BSA, 0.05% Tween 20; 22 °C; three independent experiments
T6 construct: low-density lipoprotein receptor-related protein 6 (LRP6), human, ectodomain E1, residues P21-D325; The methods name a 10x His tag; also called LPR6 E1; source: High Five insect cells, secreted, purified (Ni-NTA, HiTrapQ, SEC)
T6 sequence (looked up): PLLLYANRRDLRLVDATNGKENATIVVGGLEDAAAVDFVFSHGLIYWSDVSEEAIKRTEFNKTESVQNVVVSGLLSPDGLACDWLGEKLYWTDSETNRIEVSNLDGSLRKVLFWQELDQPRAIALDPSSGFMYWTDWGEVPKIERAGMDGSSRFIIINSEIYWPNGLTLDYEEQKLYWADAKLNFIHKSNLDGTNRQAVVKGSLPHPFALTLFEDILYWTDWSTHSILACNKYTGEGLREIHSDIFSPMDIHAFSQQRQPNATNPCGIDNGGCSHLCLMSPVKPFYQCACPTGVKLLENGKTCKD

B1: human SOSTtr177 (Q24-S177) with an N-terminal His6-SUMO tag (domain or fragment)
chain: QGWQAFKNDATEIIPELGEYPEPPPELENNKTMNRAENGGRPPHHPFETKDVSEYSCRELHFTRYVTDGPCRSAKPVTELVCSGQCGPARLLPNAIGRGKWWRPSGPDFRCIPDRYRAQRVQLLCPGGEAPRARKVRLVASCKCKRLTRFHNQS
notes: sclerostin (SOST), human, residues Q24-S177; also called Smo-SOSTtr177; source: High Five insect cells, secreted, purified; tag not cleaved; not shown: His6, N-terminal, kept; SUMO, N-terminal, kept
Binder B1 has a Kd [1] of 680 nM.

B2: human SOST_(tr177) (Q24-S177) (domain or fragment, UniProt Q9BQB4 24-177, looked up)
chain: B1 chain
notes: Sclerostin (SOST), human, residues Q24-S177; N175 not glycosylated in this construct; also called crystallization construct; not shown: His6, N-terminal, cleaved; MBP, N-terminal, cleaved
With B2 the “stoichiometry N” value [2] was 1.

B3: SOST_(tr177) N175K (domain or fragment, human, UniProt Q9BQB4 24-177, looked up)
chain: B1 chain with N152K
notes: Sclerostin (SOST), human, residues Q24-S177 (parent SOST_(tr177)) with N175K; also called SOSTtr177 with the N175K mutation; source: purified as a complex with LRP6 E1E2 H404K
B3: binds (LRP6 E1E2 H404K).

B4: SOST∆loop2 with an N-terminal His6-SUMO tag (natural protein)
chain: QGWQAFKNDATEIIPELGEYPEPPPELENNKTMNRAENGGRPPHHPFETKDVSEYSCRELHFTRYVTDGPCRSAKPVTELVCSGQCGPAGSGGSGPDFRCIPDRYRAQRVQLLCPGGEAPRARKVRLVASCKCKRLTRFHNQSELKDFGTEAARPQKGRKPRPRARSAKANQAELENAY
Work on B4 yielded a Kd [3] of 1000 nM.

B5: human SOSTtr187 (Q24-A187) with an N-terminal His6-SUMO tag (domain or fragment)
chain: QGWQAFKNDATEIIPELGEYPEPPPELENNKTMNRAENGGRPPHHPFETKDVSEYSCRELHFTRYVTDGPCRSAKPVTELVCSGQCGPARLLPNAIGRGKWWRPSGPDFRCIPDRYRAQRVQLLCPGGEAPRARKVRLVASCKCKRLTRFHNQSELKDFGTEAA
notes: sclerostin (SOST), human, residues Q24-A187; also called Smo-SOSTtr187; source: High Five insect cells, secreted, purified; tag not cleaved; not shown: His6, N-terminal, kept; SUMO, N-terminal, kept
B5 gave a Kd [1] of 600 nM.

B6: disulfide-bonded, circularized SOST loop 2 peptide (CLLPNAIGRGKWGC) (peptide)
peptide: CLLPNAIGRGKWGC
modifications: disulfide 1-14 (inferred)
notes: first cysteine of the printed peptide, for the ring-closing disulfide; last two residues of the printed peptide, with the second cysteine of the disulfide; source: synthetic peptide (Peptron)
B6 gave a Kd [3] of 5500 nM and a Kd [4] of 5200 nM.

B7: human SOSTtr178 (Q24-E178) with an N-terminal His6-SUMO tag (domain or fragment)
chain: QGWQAFKNDATEIIPELGEYPEPPPELENNKTMNRAENGGRPPHHPFETKDVSEYSCRELHFTRYVTDGPCRSAKPVTELVCSGQCGPARLLPNAIGRGKWWRPSGPDFRCIPDRYRAQRVQLLCPGGEAPRARKVRLVASCKCKRLTRFHNQSE
notes: sclerostin (SOST), human, residues Q24-E178; also called Smo-SOSTtr178; source: High Five insect cells, secreted, purified; tag not cleaved; not shown: His6, N-terminal, kept; SUMO, N-terminal, kept
B7 gave a Kd [1] of 680 nM.

B8: human SOSTtr204 (Q24-A204) with an N-terminal His6-SUMO tag (domain or fragment)
chain: QGWQAFKNDATEIIPELGEYPEPPPELENNKTMNRAENGGRPPHHPFETKDVSEYSCRELHFTRYVTDGPCRSAKPVTELVCSGQCGPARLLPNAIGRGKWWRPSGPDFRCIPDRYRAQRVQLLCPGGEAPRARKVRLVASCKCKRLTRFHNQSELKDFGTEAARPQKGRKPRPRARSAKA
notes: sclerostin (SOST), human, residues Q24-A204; also called Smo-SOSTtr204; source: High Five insect cells, secreted, purified; tag not cleaved; not shown: His6, N-terminal, kept; SUMO, N-terminal, kept
Binder B8 has a Kd [1] of 290 nM.

B9: human SOST C-terminal tail peptide (residues 170–213) (peptide)
chain: not shown
B9 was tested, and the Kd [3] was 5800 nM.

B10: human SOSTtr169 (Q24-R169) with an N-terminal His6-SUMO tag (domain or fragment)
chain: QGWQAFKNDATEIIPELGEYPEPPPELENNKTMNRAENGGRPPHHPFETKDVSEYSCRELHFTRYVTDGPCRSAKPVTELVCSGQCGPARLLPNAIGRGKWWRPSGPDFRCIPDRYRAQRVQLLCPGGEAPRARKVRLVASCKCKR
notes: sclerostin (SOST), human, residues Q24-R169; also called Smo-SOSTtr169; source: High Five insect cells, secreted, purified; tag not cleaved; not shown: His6, N-terminal, kept; SUMO, N-terminal, kept
For B10, the Kd [5] was 870 nM.

B11: SOST_(tr169) with an N-terminal His6-SUMO tag (domain or fragment, human, UniProt Q9BQB4 24-169, looked up)
chain: B10 chain
notes: has neither the HNQS region nor the basic-residue cluster; also called Smo-SOST mutant tr169; source: High Five insect cells (pAcGP67A), purified (Ni-NTA, HiTrapQ, SEC), no tag cleavage; not shown: His6, N-terminal, kept; SUMO, N-terminal, kept
Work on B11 yielded a Kd [3] of 900 nM.

B12: human WT SOST (Q24-Y213) with an N-terminal His6-SUMO tag (natural protein)
chain: QGWQAFKNDATEIIPELGEYPEPPPELENNKTMNRAENGGRPPHHPFETKDVSEYSCRELHFTRYVTDGPCRSAKPVTELVCSGQCGPARLLPNAIGRGKWWRPSGPDFRCIPDRYRAQRVQLLCPGGEAPRARKVRLVASCKCKRLTRFHNQSELKDFGTEAARPQKGRKPRPRARSAKANQAELENAY
notes: sclerostin (SOST), human, residues Q24-Y213; also called Smo-SOST; Smo-SOST WT; source: High Five insect cells, secreted, purified; tag not cleaved; not shown: His6, N-terminal, kept; SUMO, N-terminal, kept
B12 gave a Kd [5] of 780 nM.

B13: human WT SOST (Q24-Y213) with an N-terminal His6-MBP tag (natural protein)
chain: B12 chain
notes: sclerostin (SOST), human, residues Q24-Y213; also called MBP-SOST; MBP-SOST WT; source: High Five insect cells, secreted, purified; tag not cleaved; not shown: His6, N-terminal, kept; MBP, N-terminal, kept
With B13 the Kd [1] was 170 nM.

Source: article PMC7585440, “Sclerostin inhibits Wnt signaling through tandem interaction with two LRP6 ectodomains” (Nature Communications, 2020)
